Reference: patent publication US20030035790A1, “Combination therapy for the prevention or treatment of cancer, inflammatory disorders or infectious diseases in a subject” (priority 1999, published 2003)

How the values were obtained:
[1] = system: Fr.II cells derived from the bone marrow of MCA26 tumor-bearing mice; assay: In vitro differentiation of bone marrow Fr.II myeloid progenitor cells, flow cytometry; type: cell-based, mouse; settings: 10 days GM-CSF, then additional 24 hours
Method: FIG. 19. Immunostaining of DCs generated from different culture conditions. BM Fr.II cells derived from naive and MCA-26 tumor bearing mice were cultured with mGM-CSF for 10 days. Non-adherent cells were harvested and cultured in the presence of mGM-CSF or mGM-CSF and anti-CD40 mAb ([…], FGK45 clone) for additional 24 hours. Non-adherent cells were stained and analyzed for the expression of various surface molecules by flow cytometry. Mean±SD is obtained from three independent experiments.
The ability of Fr.II cells derived from the bone marrow of MCA26 tumor-bearing mice to differentiate into dendritic cells when cultured under various conditions was assessed. Fr.II cells from derived the bone marrow of tumor-free or MCA26 tumor-bearing mice were cultured for 10 days with GM-CSF. Then non-adherent cells were harvested and cultured for additional 24 hours in the presence of GM-CSF or GM-CSF and anti-CD40 monoclonal antibody. The non-adherent cells were stained and analyzed for the expression of various cell surface molecules by flow cytometry. The expression of CD40, CD80, and MHC class II was relatively low in the tumor-bearing mice. However, after culturing the Fr. II cells with GM-CSF or GM-CSF and anti-CD40 monoclonal antibody, the expression of CD40, CD 80, CD11c and MHC class II by the Fr. […]

TILs = assay: In vitro GM-CSF stimulation of TILs from large tumor-bearing mice, surface marker staining; type: cell-based, mouse; settings: GM-CSF 100 ng/ml for 5 days
Method: The ability of in vitro stimulation with GM-CSF to promote the differentiation of tumor infiltrating lymphocytes (TILs) into dendritic cells or macrophages by was assessed. The TILs were isolated from large tumor-bearing mice, separated on a lymphocyte separation gradient, cultured with or without GM-CSF (100 ng/ml) for 5 days, and then stained with various cell surface markers. A reproducibly high percentage of Gr-1^+ cells was resent in the TIL population (65.5%), while the percentage of dendritic cells in the TIL population was very low (0.31%); some macrophages (14.9%) were also present in the TIL population.

B1: GM-CSF: murine granulocyte macrophage colony-stimulating factor added to cultures (protein, UniProt P01587 18-141, looked up)
Granulocyte-macrophage …: APTRSPITVTRPWKHVEAIKEALNLLDDMPVTLNEEVEVVSNEFSFKKLTCVQTRLKIFEQGLRGNFTKLKGALNMTASYYQTYCPPTPETDCETQVTTYADFIDSLKTFLTDIPFECKKPGQK
[1]
  expression of CD40, CD 80, CD11c and MHC class II by the Fr. II cells: significantly increased
TILs
  Gr-1^+ cells in the TIL population: 42.7%
  dendritic cells in the TIL population: 13.9%
  macrophages in the TIL population: 24.3%
